Patent US9482669B2, “Crystal structure of the NanR and ManNAc-6P complex, and uses thereof” (priority 2013, dated 2016)
Changes are numbered by the printed parent chain. Names may count otherwise.

How the values were obtained:
[1] = system: nanTp-nanE intergenic region; test: EMSA of NanR with nanTp-nanE intergenic region; assay type: binding, Vibrio vulnificus; conditions: for DNA binding in EMSA: wild-type or mutant NanR
Description: (§1) Purified His-NanR protein was used to raise a primary polyclonal antibody by immunizing European rabbits (Oryctolagus curiculus). First, after one primary injection containing 500 μg of protein, three boosters containing 200 μg of protein was performed at 2-week intervals. Western blotting, EMSA and DNaseI footprinting assays were performed according to typical procedures known in the art.
NanR represses both nan T(PSL)AR and nanEK nagA operons by binding to an operator within the nanTp-nanE intergenic region. To examine the role of R57 and R60 residues in DNA binding, EMSA (electrophoretic gel mobility shift assays), in which the nanTp-nanE intergenic region was incubated with wild-type or mutant NanR in the absence or presence of ManNAc-6P, were performed.
The importance of K188 and K199 residues on all to binding of NanR to DNA was assessed by EMSA. […] Furthermore, the mutants were much more susceptible to ManNAc-6P than wild-type NanR (FIG. 10). […] The transcriptional control region of nan operon interacts with the dimer via the positively charged residues in this space (FIGS. 7b and 7c).

[2] = system: 32P-labeled transcriptional control region of nan operon; test: DNaseI footprinting assay; assay type: binding, Vibrio vulnificus; conditions: 400 nM NanR, 0.1 mM or 1 mM ManNAc-6P
Description: as §1
(§2) Therefore, the present inventors hypothesized that binding of ManNAc-6P may alter the conformation of NanR and alleviate its interaction with the transcriptional control region of nan operon. In detail, a DNaseI footprinting assay using NanR protein and ^32P-labeled transcriptional control region of nan operon was performed.

[3] = target: NanR-binding duplex DNA (transcriptional control region of nan operon); test: Isothermal titration calorimetry of NanR with NanR-binding duplex DNA; parameters: species or system Vibrio vulnificus; conditions: for Kd: ITC at 25° C., 0.48 mM protein titrated against 0.03 mM DNA, read-out: dissociation constant (Kd) for target DNA
Description: NanR-binding duplex DNA (5′-[…] […]-3′, SEQ ID NO:15) was chemically synthesized. NanR was dialyzed extensively against Tris buffer (50 mM Tris-HCl, pH 7.0; 300 mM NaCl) and the DNA was diluted to 0.03 mM in the same buffer. Protein and DNA samples were degassed by vacuum aspiration for 20 minutes prior to loading and titration was carried out at 25° C. The NanR dimer in the syringe (0.48 mM) was titrated against the 0.03 mM DNA sample in the reaction cell. Analysis of the interaction between the NanR/ManNAc-6P complex and the DNA sample was performed using 0.48 mM of complex and 0.03 mM of DNA. The calorimetric assays were performed using a VP-ITC (MicroCal Inc., Northampton, Mass.). The stirring speed was 300 rpm and the thermal power was recorded every 10 seconds. Data were processed and plotted using the Origin program (version 7) supplied with the instrument.
as §2

PnanTp = test: E. coli dual plasmid system (luciferase reporter fused to PnanTp); assay type: cell-based; conditions: for repressive effect of NanR on activity of PnanTp: point mutations in DBD
Description: E. coli strains were co-transformed with a luciferase reporter plasmid (pBS0915) and one of the pNB-series of plasmids that express NanR. Cells were cultured overnight and then diluted into the appropriate fresh media (supplemented M9 in FIG. 3; LB in FIG. 4) containing arabinose (0.002%), and incubated at 37° C. until cells grew to early exponential phase. Relative luminescence unit (RLU) was calculated by dividing the luminescence by the A600, as described previously. For screening ligand-sensing residues, the BSE1201 strain (ΔaraBAD ΔnanE) was used as the host cell instead of DH5α to ensure that the arabinose was not used as a carbon source and that ManNAc-6P generated from Neu5Ac was accumulated in the cell.
To assess the importance of the interaction between ManNAc-6P and NanR to regulation of the nan genes, the residues involved in ligand-binding were mutated and the impact on NanR function was investigated using an E. coli dual plasmid system. Cells were cotransformed with plasmids containing a luciferase reporter gene fused to the NanR-binding nanT(PSL)AR promoter (PnanTp), and wild-type or mutant NanR, and then incubated in the presence of arabinose and the presence or absence of Neu5Ac.
The simplest helix-turn-helix (HTH)-containing DBD includes three core helices; the HTH domains can form tetra-helical bundle, winged helix, and ribbon-helix-helix type configurations. The DBD of NanR is composed of a six-helix bundle, which is not the archetypal conformation of HTH-containing domains; therefore, the recognition helix required for DNA-binding could not been determined. […] The importance of these residues to DNA-binding was examined using an E. coli dual plasmid system described in Example 2. The repressive effect of wild-type NanR on activity of PnanTp was abolished by the R57A, R57L, R60A, and R60L point mutations (FIG. 4c).

PnanE = test: In vitro transcription assay; assay type: biochemical, Vibrio vulnificus; conditions: 100 nM NanR protein, presence or absence of 1 mM ManNAc-6P
Description: In vitro transcription assays with wild-type or mutant NanR proteins were performed according to procedures described previously. RNA extraction, cDNA synthesis, and real time PCR amplification of the cDNA were performed as described previously.

Molecule: CC(=O)N[C@@H]1C(O)O[C@H](COP(=O)(O)O)[C@@H](O)[C@@H]1O (some centres unmarked) [ManNAc-6P, N-acetylmannosamine 6-phosphate]
- effect of ManNAc-6P on DNA migration in EMSA ([1]; addition of ManNAc-6P): retardation of DNA migration
- effect of ManNAc-6P on DNaseI protection by NanR [2]: cleavage bands at the center of the NanR-binding site disappeared

B1: NanR dimer: V. vulnificus transcriptional repressor of the nan operon, SEQ ID NO. 1 (protein, listed as Vibrio vulnificus)
chain: MGSPKNLLVRLRSNMEPFSKKLRVVADYILENAHDVQFQTITDLARNTQTSEATVVRLCRDMGYKGYSDFRMALAVDLSQTESRQQNHIEGDICDVSAQSAVDSLQDTAKLIDRKSLARIVERVHQAEFIGCIGVGASSIVGRYLAYRLIRIGKKAIMFEDTHLAAMSASRSSQGDLWFAVSSSGSTKEVIHAAGLAYKRDIPVVSLTNINHSPLSSLSTEMLVAARPEGPLTGGAFASKVGALLLVDVLVNSLLESYPEYKDSVQETAEVVIPLMAN
modifications: homodimer
- Kd [3]: 1.4 µM
- luciferase activity (PnanTp) after addition of Neu5Ac (PnanTp; BSE1201 host, arabinose, presence or absence of Neu5Ac): increased following addition of Neu5Ac

B2: R57A: modified NanR protein, Arg57 substituted with alanine (protein)
chain: B1 chain with R57A
- repressive effect of NanR on activity of PnanTp (PnanTp): abolished
- DNA binding in EMSA [1]: No DNA migration was detected
- repression of PnanE transcription (PnanE): did not repress PnanE

B3: K199L (protein)
chain: B1 chain with K199L
- DNA binding in EMSA [1]: not as conspicuous as that of wild-type NanR

B4: K199A (protein)
chain: B1 chain with K199A
- DNA binding in EMSA [1]: not as conspicuous as that of wild-type NanR

B5: R60A: modified NanR protein, Arg60 substituted with alanine (protein)
chain: B1 chain with R60A
- repressive effect of NanR on activity of PnanTp (PnanTp): abolished
- DNA binding in EMSA [1]: No DNA migration was detected
- repression of PnanE transcription (PnanE): did not repress PnanE

B6: NanR complexed with ManNAc-6P: complex formed by interaction between NanR protein and ManNAc-6P (protein, UniProt P0A8W0 1-263, looked up)
HTH-type transcriptional …: MGLMNAFDSQTEDSSPAIGRNLRSRPLARKKLSEMVEEELEQMIRRREFGEGEQLPSERELMAFFNVGRPSVREALAALKRKGLVQINNGERARVSRPSADTIIGELSGMAKDFLSHPGGIAHFEQLRLFFESSLVRYAAEHATDEQIDLLAKALEINSQSLDNNAAFIRSDVDFHRVLAEIPGNPIFMAIHVALLDWLIAARPTVTDQALHEHNNVSYQQHIAIVDAIRRHDPDEADRALQSHLNSVSATWHAFGQTTNKKK
modifications: complexed with ManNAc-6P
- Kd [3]: 186 µM
- reduction of interaction affinity for DNA versus NanR dimer ([3]; NanR complexed with ManNAc-6P): 130 fold
